Key:
[1] = Preservation of cow's milk, change in appearance (Test 7); details: cow's milk at 25° C.
Protocol: The antibacterial activity of hydrolyzates of iron saturated LF was tested in the same manner as in test 5, except that hydrolyzates of iron saturated LF prepared in the same manner as in Example 5 and cow's milk sold in the market were used.
Each of three kinds of samples, to one of which is added hydrolyzate of Fe-LF, to another one of which is added unhydrolyzed LF and the third of which is added nothing, were respectively distributed into 3 test tubes (in total 9) and preserved at 25° C. for observation of any change in appearance.

Escherichia coli [2] = test: Antibacterial activity: proliferation inhibition of E. coli in liquid culture medium (Tests 1, 3, 6); type: cell-based
Protocol: From the stock culture of Escherichia coli, a loop of bacterial cells was taken out with a platinum loop and smeared onto a standard plate agar medium (by Nissui Seiyaku), followed by incubation at 35° C. for 16 hours under aerobic condition.
Basic culture medium (liquid culture medium) was prepared by dissolving bactocasitone (by Difco) into purified water in 1% concentration, adjusting the pH of the resultant solution to 7.0 with 1M sodium hydroxide, then sterilizing at 115° C. for 15 minutes.
The solutions of LF hydrolyzates previously prepared in item 1-1) were respectively filtered with membrane filters (by Advantech) to remove microorganisms which might be included therein. Different quantities of each of filtered solutions of LF hydrolyzates were respectively added to a portion of the basic culture medium to give 6 lots of test culture media containing LF hydrolyzate in different concentrations for each LF hydrolyzate having different decomposition rates as shown in Table 1. Control culture media containing unhydrolyzed LF in different concentrations were also prepared in the same manner as in the test culture media.
To each of the test and control culture media, the pre-culture was inoculated in 1% concentration, followed by incubation at 35° C. for 16 hours. The proliferation inhibition rate was determined by measuring the optical density of the culture broth in the same manner as previously described and calculating in accordance with the following formula:
proliferation inhibition rate (%)=100-(A/B×100)
(wherein A denotes the difference of optical densities of the test culture media before and after 16 hours incubation, B denotes the difference of optical densities of the control culture media before and after 16 hours incubation respectively) and
Antibacterial activity against E. coli of LF hydrolyzate having a 12% decomposition rate prepared in the same manner as in Example 2 (hydrolysis by citric acid) and that of unhydrolyzed LF were determined in the same manner as in Test 1.
Aqueous solutions of 10 kinds of LF hydrolyzate (prepared using different enzymes) and an aqueous solution of unhydrolyzed LF prepared in the same manner as in test 2 were filtered with membrane filters (by Advantec) to remove bacterial cells which might be contaminated therein. Each of the solutions was added to basic culture media (the same with that in Test 1) in different concentrations (50, 100, 250, 500, and 1000 ppm) to prepare test cultures and control cultures.
Antibacterial activity was tested for these cultures in the same manner as in test 1.

Escherichia coli [3] = test: Antibacterial activity against E. coli in the presence of iron (Test 8); type: cell-based; details: 0.01 mM of ferrous sulfate
viable bacterial count = test: Viable bacterial count of treated sliced vegetables (Test 4); details: dipped in 1% aqueous solution 30 seconds, preserved at 5° C.
Protocol: A quantity of sliced vegetables sold in the market was divided into three parts. […] Each of the treated samples was drained then preserved at 5° C. for observation. Viable bacterial count of the samples was periodically determined by the conventional method.

[4] = preservation day 10, 3 test tubes
[5] = preservation day 14, 3 test tubes

B1: lactoferrin (protein, UniProt P24627 20-708, looked up)
Lactotransferrin: APRKNVRWCTISQPEWFKCRRWQWRMKKLGAPSITCVRRAFALECIRAIAEKKADAVTLDGGMVFEAGRDPYKLRPVAAEIYGTKESPQTHYYAVAVVKKGSNFQLDQLQGRKSCHTGLGRSAGWIIPMGILRPYLSWTESLEPLQGAVAKFFSASCVPCIDRQAYPNLCQLCKGEGENQCACSSREPYFGYSGAFKCLQDGAGDVAFVKETTVFENLPEKADRDQYELLCLNNSRAPVDAFKECHLAQVPSHAVVARSVDGKEDLIWKLLSKAQEKFGKNKSRSFQLFGSPPGQRDLLFKDSALGFLRIPSKVDSALYLGSRYLTTLKNLRETAEEVKARYTRVVWCAVGPEEQKKCQQWSQQSGQNVTCATASTTDDCIVLVLKGEADALNLDGGYIYTAGKCGLVPVLAENRKSSKHSSLDCVLRPTEGYLAVAVVKKANEGLTWNSLKDKKSCHTAVDRTAGWNIPMGLIVNQTGSCAFDEFFSQSCAPGADPKSRLCALCAGDDQGLDKCVPNSKEKYYGYTGAFRCLAEDVGDVAFVKNDTVWENTNGESTADWAKNLNREDFRLLCLDGTRKPVTEAQSCHLAVAPNHAVVSRSDRAAHVKQVLLHQQALFGKNGKNCPDKFCLFKSETKNLLFNDNTECLAKLGGRPTYEEYLGTEYVTAIANLKKCSTSPLLEACAFLTR
notes: Native LF sold in the market (by Oleofina, Belgium), not hydrolyzed; control of Tests 1, 3-6, 8
[1]; [4]
  change in appearance of milk: did not show any change in appearance
[1]; [5]
  change in appearance of milk: all of the samples showed coagulation
Escherichia coli [2]; Table 1
  quantity added at which antibacterial activity was shown: more than 250 ppm
Escherichia coli [2]; Table 1, concentration 1000 ppm
  proliferation inhibition rate: complete inhibition could not be achieved
Escherichia coli [2]; Table 3, quantity added 25 ppm
  proliferation inhibition rate: 0%
Escherichia coli [2]; Table 3, quantity added 50 ppm
  proliferation inhibition rate: 0%
Escherichia coli [2]; Table 3, quantity added 100 ppm
  proliferation inhibition rate: 5%
Escherichia coli [2]; Table 3, quantity added 250 ppm
  proliferation inhibition rate: 16%
Escherichia coli [2]; Table 3, quantity added 500 ppm
  proliferation inhibition rate: 74%
Escherichia coli [2]; Table 3, quantity added 1000 ppm
  proliferation inhibition rate: 85%
Escherichia coli [2]; Table 5, quantity 250 ppm
  proliferation inhibition rate: weak antibacterial activity
Escherichia coli [2]; Table 5, quantity 1000 ppm
  proliferation inhibition rate: complete inhibition against proliferation of E. coli could not be achieved
Escherichia coli [3]
  antibacterial activity in the presence of ferrous sulfate, in words: deactivated
Viable bacterial count; 0 hours
  viable bacterial counts: 5.1 × 10^3 per 1 g of sliced vegetables
Viable bacterial count; 12 hours
  viable bacterial counts: 2.0 × 10^4 per 1 g of sliced vegetables
Viable bacterial count; 24 hours
  viable bacterial counts: 1.8 × 10^5 per 1 g of sliced vegetables
Viable bacterial count; 36 hours
  viable bacterial counts: 2.2 × 10^5 per 1 g of sliced vegetables

B2: unhydrolyzed Fe-LF: Comparison sample of Test 7; table says unhydrolyzed Fe-LF ?, text says unhydrolyzed LF (protein, UniProt P24627 20-708, looked up)
Lactotransferrin: B1 Lactotransferrin
modifications: iron-saturated
[1]; preservation day 0, 3 test tubes
  change in appearance of milk: no change
[1]; preservation day 3, 3 test tubes
  change in appearance of milk: no change
[1]; preservation day 7, 3 test tubes
  change in appearance of milk: no change
[1]; [4]
  change in appearance of milk: no change
[1]; [5]
  change in appearance of milk: coagulated

Reference: patent US5389611A, “Lactoferrin hydrolyzate for use as an antibacterial agent and as a tyrosinase inhibition agent” (priority 1990, dated 1995)
